The experiment concerns the target T1, His-LCK (human, UniProt P06239 1-509).
T1 construct: Lymphocyte-specific protein tyrosine kinase (LCK), human, full length; Cloned into pET-32a (BamHI/XhoI); also called Recombinant His-tagged LCK
Description: pull-down; MBP fusion proteins bound to amylose resin, His-LCK incubated with 50 μL beads in 20 mM HEPES pH 7.4, 0.5% NP-40, 100 mM NaCl for 2 h at 4 °C; eluted with 10 mM maltose; immunoblot with anti-His-Tag and anti-MBP. The note with it: both partners purified. In general terms: In western blotting, separated proteins are transferred to a membrane and probed.

These results are taken from paper PMC3796550, “Phosphorylation of FOXP3 by LCK Downregulates MMP9 Expression and Represses Cell Invasion” (PLoS ONE, 2013).

T1 sequence (P06239 whole entry): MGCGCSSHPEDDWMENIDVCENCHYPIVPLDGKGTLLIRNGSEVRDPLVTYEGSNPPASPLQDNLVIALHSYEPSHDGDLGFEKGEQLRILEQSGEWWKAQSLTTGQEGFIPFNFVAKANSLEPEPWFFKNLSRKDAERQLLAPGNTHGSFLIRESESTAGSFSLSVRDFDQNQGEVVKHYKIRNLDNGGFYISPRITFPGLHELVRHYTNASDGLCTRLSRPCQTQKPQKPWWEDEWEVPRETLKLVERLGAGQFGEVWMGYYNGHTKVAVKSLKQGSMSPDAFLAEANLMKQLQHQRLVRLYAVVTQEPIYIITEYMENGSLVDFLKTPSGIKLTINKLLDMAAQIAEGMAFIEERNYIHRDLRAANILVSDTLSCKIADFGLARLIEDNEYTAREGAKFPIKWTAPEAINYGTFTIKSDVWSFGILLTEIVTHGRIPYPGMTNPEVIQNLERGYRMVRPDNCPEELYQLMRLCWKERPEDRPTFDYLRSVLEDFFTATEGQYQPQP

B1: MBP-FOXP3-Full (natural protein, human, UniProt Q9BZS1 1-431, looked up)
chain: MPNPRPGKPSAPSLALGPSPGASPSWRAAPKASDLLGARGPGGTFQGRDLRGGAHASSSSLNPMPPSQLQLPTLPLVMVAPSGARLGPLPHLQALLQDRPHFMHQLSTVDAHARTPVLQVHPLESPAMISLTPPTTATGVFSLKARPGLPPGINVASLEWVSREPALLCTFPNPSAPRKDSTLSAVPQSSYPLLANGVCKWPGCEKVFEEPEDFLKHCQADHLLDEKGRAQCLLQREMVQSLEQQLVLEKEKLSAMQAHLAGKMALTKASSVASSDKGSCCIVAAGSQGPVVPAWSGPREAPDSLFAVRRHLWGSHGNSTFPEFLHNMDYFKFHNMRPPFTYATLIRWAILEAPEKQRTLNEIYHWFTRMFAFFRNHPATWKNAIRHNLSLHKCFVRVESEKGAVWTVDELEFRKKRSQRPSRCSNPTPGP
notes: Forkhead box P3 (FOXP3), human, full length, amino acids 1-431; Cloned into pMAL-c2 (BamHI/SalI); also called MBP-FOXP3 WT
For the molecule B1, the binding result is reported as “binds”.

B2: MBP-FOXP3 ΔFKH (domain or fragment, human, UniProt Q9BZS1 1-332, looked up)
chain: MPNPRPGKPSAPSLALGPSPGASPSWRAAPKASDLLGARGPGGTFQGRDLRGGAHASSSSLNPMPPSQLQLPTLPLVMVAPSGARLGPLPHLQALLQDRPHFMHQLSTVDAHARTPVLQVHPLESPAMISLTPPTTATGVFSLKARPGLPPGINVASLEWVSREPALLCTFPNPSAPRKDSTLSAVPQSSYPLLANGVCKWPGCEKVFEEPEDFLKHCQADHLLDEKGRAQCLLQREMVQSLEQQLVLEKEKLSAMQAHLAGKMALTKASSVASSDKGSCCIVAAGSQGPVVPAWSGPREAPDSLFAVRRHLWGSHGNSTFPEFLHNMDYFK
notes: Forkhead box P3 (FOXP3), human, fragment with a truncated forkhead domain, amino acids 1-332; Cloned into pMAL-c2; this vector is known to place MBP at the N-terminus (surmised)
On to B2, for which the binding result is “binds”.
